Data published in patent US20220380473A1, “ANTI-GAL3 ANTIBODIES AND USES THEREOF” (TrueBinding, Inc., priority 2019, published 2022).

Columns and labels:
[1] = tested on: MC38 murine colon adenocarcinoma cells; test: Primary mouse MC38 colon tumor model; assay type: in vivo
Method: On the day of tumor implantation, MC38 murine colon adenocarcinoma cells were collected, washed and resuspended in PBS. Mice were anesthetized by inhalation anesthetic (3 to 5% Isoflurane in medical grade air). 5×10^5 cells in 0.1 mL PBS were subcutaneously injected into the right flank of mice by using a syringe with a 25-ga needle. On day 7, the tumor volumes were measured and mice were randomly assigned into two groups (n=8). […] The tumor volumes and body weights were monitored twice per week. The animals were humanely sacrificed when tumor volume reached 3000 mm^3. Results were expressed as mean±SEM.

[2] = biological target: T1, interaction of Gal3 and TIM-3 (Homo sapiens, UniProt P17931); test: Gal3-TIM-3 interaction blockade ELISA (Example 13); assay type: binding; conditions: antibody at 20 ug/ml
T1 construct: full-length human Galectin-3 protein (Acro Biosystems, GA3-H5129); linker-spaced 6-histidine tag; purchased Acro Biosystems GA3-H5129 (Gal3); TM3-H5229 (TIM-3)
Method: To identify Gal3-targeted antibodies with the ability to block the interaction of Gal3 and TIM-3, purified Gal3 and TIM-3 proteins were incubated in the presence (or absence) of various Gal3-targeted or control antibodies, or without antibody, and protein interaction was evaluated by ELISA.
Human Gal3 protein (Acro Biosystems, GA3-H5129) was diluted in phosphate buffered saline (PBS) (Corning) to a concentration of 0.5 μg/ml and 100 ul of the diluted hGal3 was added to each well of a 96-well ELISA plate (Thermo Fisher, 44-2404-21). After incubating the plate at 4° C. overnight, the plate was washed three times with 300 μl of PBS with 0.05% TWEEN (VWR) (PBST) per well. The plate was then blocked for an hour with 200 μl of 2% bovine serum albumin (BSA) (Sigma) in PBST per well at room temperature with gentle rocking. […]
Afterwards, 50 ul of 1 ug/ml of human TIM-3 extracellular domain protein (Acro Biosystems, TM3-H5229) in 2% BSA in PBST was added to the wells. […] The plate was read using a plate reader (Molecular Devices) at absorbance of 450 nm. Percent blockade of Gal3-TIM-3 interaction was calculated as the fraction of signal obtained in the absence of antibody with the background signal subtracted.

[3] = tested on: STAM HFD-CDAA mouse model of liver fibrosis; test: STAM CDAA-HFD mouse model of liver fibrosis; assay type: in vivo
Method: To confirm that the observed reduction of liver fibrosis in the MCD mouse model was not unique to this setting, the activity of mIMT001 was explored in the STAM HFD-CDAA mouse model of liver fibrosis. Briefly, Two-day-old male C57Bl/6 mice were injected by a single subcutaneous injection of 200 ug of streptozotocin to cause islet destruction and then fed CDAA-high fat diet (Research Diet #A06071302) starting at 4 weeks of age and continuing for the entire duration of each study. At 8 weeks of age, mice were divided into two groups (seven mice each) based on ALT score. Mice were treated human anti-mIgG4 isotype control (hIgG4, 10 mg/kg) or human anti-Gal3 antibody (IMT001-4, 10 mg/kg) twice a week by intraperitoneal injection for 4 weeks. All animal care and procedures were approved by the Immutics IACUC.

Renca cells = test: Primary mouse Renca renal tumor model; assay type: in vivo; conditions: vs isotype control
Method: On the day of tumor implantation, mice were anesthetized by inhalation anesthetic (3 to 5% Isoflurane in medical grade air), Renca cells were washed and resuspended in PBS before subcutaneously injecting 2×10^5 cells in 0.1 mL, PBS using a syringe with a 25-ga needle. […] The animals were humanely sacrificed when tumor volume in the control group reached between 2000-2500 mm^3. Results were expressed as mean±SEM. The statistical analysis was performed in comparison with IgG2b control group using unpaired t test.

T1 sequence (P17931 2-250 limits assumed): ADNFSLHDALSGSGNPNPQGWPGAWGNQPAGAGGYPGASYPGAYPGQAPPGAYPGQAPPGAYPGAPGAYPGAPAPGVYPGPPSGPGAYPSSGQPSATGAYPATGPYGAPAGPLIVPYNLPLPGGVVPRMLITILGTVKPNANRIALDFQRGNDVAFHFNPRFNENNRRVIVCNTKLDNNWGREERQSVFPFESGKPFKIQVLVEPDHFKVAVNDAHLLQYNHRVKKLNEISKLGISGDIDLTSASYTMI

B1: IMT001: anti-Gal3 monoclonal antibody (Immutics); printed as mIMT001 (IMT001), murine (antibody, V domains shown)
VH: QIQLVQSGPELKKPGETVKISCKASGYTFTNYGMNWVKQAPGKGLKWMGWINTNTGEPTYVEEFKGRFAFSLETSASTAYLQINNLKNEDTATYFCAPYDNFFAYWGQGTLVTVSA
VL: DIVITQDELSNPVTSGESVSISCRSSKSLLYKDGKTYLNWFLQRPGQSPQLLIYLMSTHASGVSDRFSGSGSGTDFTLEISRVKAEDVGVYYCQQLVDYPLTFGAGTKLELK
Which results are given for B1?
reduction of tumor burden ([1]; 10 mg/Kg i.p., day 24, vs isotype control): about 33%; effect on tumor size ([1]; vs isotype control): much reduced tumor size; Gal3-TIM-3 binding, % of unblocked control (no antibody) [2]: 7%; % area picosirius red staining ([3]; liver, 10 mg/kg twice a week i.p. for 4 weeks): 1.66%; reduction of picosirius red staining ([3]; vs isotype control): 67%; reduction of tumor growth (Renca cells; 10 mg/Kg i.p.): about 35%; effect on tumor size (Renca cells): much reduced tumor size
